From the nanobody polyreactivity screen of Harvey et al. (2022) come the findings set out here.

The data set in a line: yeast display, Sf9 membrane polyspecificity reagent, FACS + sequencing; frameworks hold sequencing errors. In short, it runs like this:
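Nanobodies from a synthetic yeast display library (Saccharomyces cerevisiae BJ5465), induced 36–48 hours with galactose, were stained 1 hour at 4 °C with 10% biotinylated, detergent-solubilized Sf9 membrane reagent, enriched on streptavidin microbeads, then FACS-sorted. Anti-HA (expression) and streptavidin (reagent binding) fluorescence set low and high (top ~1%) gates. Polyreactivity labels come from the gate of origin. Genes were colony-PCR amplified, MiSeq 2 × 250 sequenced and filtered by CDR length.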
Take “QVQLVDSGGGLVQAGGSLRLSCAASGSTFTYYAMGWYRQAPGKERELVAAIRNSDGTTYYADSVKGRFTISRDNAKNTVYLQMNSLKPEDTAVYYCAAGPRGRWSTYDYWGQGTQVTVSS”: the “polyreactivity (PSR sort gate)” value was “low polyreactivity”.
The result for “QVQLVDSGGGLVQAGGSLRLSCAASGSTFYGYTMGWYRQAPGKERELVAAITSSGGSTYYADTVKGRFTISRDNAKNTVYLQMNSLNPEDTAVYYCAARGYRHFYYWGQGTQVTVSS” reads “high polyreactivity”; that for “QVQLVDSGGGLVQAGGSLRLSCAASGSTFYLYAMGWYRQAPGKERELVAVITTDGSTTYADSVKGRFTISRDNATNTVYLEMNSLKPEDTAVYFCAAYGGNGQYYSQYDYWGQGTQVTVSS”, “low polyreactivity”.
As for “QVQLVDSGGGLVQAGGSLRLSCAASGTIILVYAMGWYRQAPGKERELVARITNGTGSTYYADSVKGRFTISRDNAKNTVYLQMNSLKPEDTAVYYCATGQGSSYRSGPRWYPNAFGYWGQVTQVTVSS”, the entry is “high polyreactivity”; as for “QVQLVDSGGGLVQAGGSLRLSCAASGYILGRYAMGWYRQAPGKERELVAAISSSGGSTYYADSVKGRFTISRDNGKNSVYLQINSLKPEDTAFYYWNVPRFYGSYNYWGQGTQVTVSS”, “high polyreactivity”.
As for “QVQLVDSGGGLVQAGGSLRLSCAASGYTFVPYAMGWYRQAPGKERELVAAISSSGGDTYYADSVKGRFTISRDNAKTTVYLQLNSLKPEDTAVYYCNTGVYVWQYWYYGFDYWGQGTQVTVSS”, the “polyreactivity (PSR sort gate)” value is given as “low polyreactivity”.
Turning to “QVQLVDSGGGLVQAGGSLRLSCAASGYTLDGNAMGWYRQAPGKQREFVAAITIRGGGTYYADSVKGRFTISRDNAKNTDYVQMNSLKPEDSAVYYCNADTYDPFPWGSDYWGQGTQVTVSS”, the “polyreactivity (PSR sort gate)” value is recorded as “high polyreactivity”.
As for “QVQLVDSGGGLVQAGGSLRLSCAATGFTLPKYAMGWYRQAPGKERELVAAISSGGSTYYADSVKGRYTISRDNAKNTVYLQMNSLKPEDSAVYYCAAKYYYYRRDYWGQGTQVTLSS”, the entry is “high polyreactivity”; as for “QVQLVDSGGGLVQAGGSLRLSCAAYGLTFTYYDMGWYRQAPGNERELVATFSWSDSSTYADSVKGRFTISRDNAKNTVYLQMNSLKPEDTAVYYCNKVSYYTYDVDYWGQRTQVTVSS”, “low polyreactivity”; as for “QVQLVDSGGGLVQAGGSLRLSCADSGRIFVGYAMGWYTQAPGKDRELVAAINRTGSSTYYADSVKGRFTISRDNAKTTVYLQMNSLKPEDTAVYYCNARSGNRYGPRYDYWGQGTQVTVSS”, “high polyreactivity”.
For “QVQLVDSGGGLVQAGGSLRLSCASSGFTISPYAMGWYRQAPGKERELVAAISSSGGSTYYADSVKGRFTISRDNAKYTVYLQMTSLKPEDTAVYYCATQGTRRPGKFYYWGQCTQVTVSS”, the “polyreactivity (PSR sort gate)” value is given as “high polyreactivity”.
In the case of “QVQLVDSGGGLVQAGGSLRLSCASTGSIYRYAIGWNRQSPGKERELVAAINFNGGRTYYADSVKGRFTISSDNAKNTVYLQMNSLKPEDTAVYYCAAVRSSNQGGFDYWGQGTLVTVSS”, the “polyreactivity (PSR sort gate)” value is “high polyreactivity”.
On to “QVQLVDSGGGLVQAGGSLRLSCDASGLIFFFYAMRWYRQAPGKERELVAAISDEGVSTDYADSVKGRFTISRDNAKNTVYLQMNSLKPEDTAVYYCAAKTERVYPWFSFGYWGQGTQVTVSS”, for which the “polyreactivity (PSR sort gate)” value is reported as “low polyreactivity”.
As to “QVQLVDSGGGLVQAGGSLRLSCDASGSTFKWYAMGWYRQAPGKERELVAAISWTGASTYYADSVKGRFTISRDNGKNTVYLQMNSLKPEDTAVYYCAADRTYYAMLWTGRSRYDYWGQGTQVTVSS”, the “polyreactivity (PSR sort gate)” value is reported as “high polyreactivity”.
On to “QVQLVDSGGGLVQAGGSLRLSCPASGYTIVYNAMGCYRQGPGKEREFVAAITWSGTSTRYADSVKGRFTISRDKAKNTVYLQMNSLKPDDTAVYYCSARFPLVRYNYWGQGTQVTVSS”, for which the “polyreactivity (PSR sort gate)” value is on record as “high polyreactivity”.
Take “QVQLVDSGGGLVQAGGSLRLSCSASGRIFLRYPMGCYRQSPGKERELVAVITWSGGSTNYADSVKGRFTISRDNAKNTVYLQMNSLKPEDTAVYYCAVDNTGRSWPYDYWGQGTQVTVSS”: the “polyreactivity (PSR sort gate)” value is “low polyreactivity”.
As for “QVQLVDSGGGLVQAGGSLRLSCSASRSNFVYNAIGWYRKAPWKERELVTGISGGGGTNYADSVKGRFTISRDNEKNTVYLQMNSLKPEDTAVYYCAAEQNYIEFDYWGQGTQVTVSS”, the entry is “low polyreactivity”; as for “QVQLVDSGGGLVQAGGSLRLSSAASGFIFYEYAMGWYRQAPGKEMELVAAITSGGSTDYADSVKGRFSSSRDNAKNTVYLQMNCMKPDDTAVYYCNADLLTGYYWYKYWGQGTQVSVSS”, “low polyreactivity”; as for “QVQLVDSGGGLVQAGGSLRLSSAASGRIFPRYAMGWDRQAPGKERELVATISSGGSTYYADSVKGRFTISRDNAKNTVYLQMISLKPEDTAVYYCATGRQVVRSYSEGDYWGQGTQVTVSS”, “low polyreactivity”.
Consider “QVQLVDSGGGLVQAGGSLRLSSAASGSTFAVNAMGWYIQARGKERELVAAISDSDGSTFYADSVKGRFTISRDNAKNTVYLQMNSLKPEDTAVYYCAATVYRVFRYSYLYYYWGQGTQVTVSS”, for which the “polyreactivity (PSR sort gate)” value was “low polyreactivity”.
For “QVQLVDSGGGLVQAGGSLRLSSPASGFIIGLYAMGWYRQEPGKERELVAAISTSSGITYYADSVKGRFTISRDNAKNSVYLQMNSLKPEDTAVYYCAARGHYYDFCGQGTQVTVSS”, the “polyreactivity (PSR sort gate)” value was “low polyreactivity”.
On to “QVQLVDSGGGLVQAGGSLRLTCAASGSIFDRYAMGWYRQAPGKERELVAAITGRGTSTYYADSVKGRFTISRDNAKNTVYLQMNSLKPEETAVYYCATPFWSRPAQDEYDYWGQGTQVTVSS”, for which the “polyreactivity (PSR sort gate)” value is on record as “high polyreactivity”.
Turning to “QVQLVDSGGGLVQAGGSLSLSCAASGSTFTWYAMGWYIQAPGKERELVAASRWSGGNTYYADSVKGRFTISRDNAKHTVYLQMNSLKPEDPAVYYCAARLYTAADHYNDWGQGTQVTGSS”, the “polyreactivity (PSR sort gate)” value is listed as “high polyreactivity”.
For “QVQLVDSGGGLVQAGVSLRLSCPASGSIFRPNAMGWYRQAPGKERELVAAINTSDDSTYYADSVKGRFTISRDNAKNTVYLQMNSLIREDTAVYYCAAEYYAYAYGDDYDYWGQGTQVTVSS”, the “polyreactivity (PSR sort gate)” value is given as “low polyreactivity”.
Turning to “QVQLVDSGGGLVQARGSLRLTCAASGRIYNLYAMGWYRQAPGKERELVAAIRGRGTSTYYADSVKVRFTISRDKAKNTVYFQMNSLKPEDTAVYYCASEGGYGPTLQDTSRYEYWGQGTQVTVSS”, the “polyreactivity (PSR sort gate)” value was “low polyreactivity”.
For the sequence “QVQLVDSGGGLVQASGSLRLSCAASGSIFLFYAMGGYRQAPGKERQVVAAITSGGRTYYADSVKGRFTISRDNAKNTVYLQMNSLKPEDTAVYYCNAVRFYSIGLGQDDYWGQGTQVTVSS”, the “polyreactivity (PSR sort gate)” value is “low polyreactivity”.
“QVQLVDSGGGLVQGGGRLRLSCAASGFTLQSNAMGWYRQAPGKERELVAAISFRGGSTYYADSVKGRFTISRDNAKNTVYLQKNSLKPEDTAVYYCAADFYVHSAYYYGYWGQGTQVTVSS”: the “polyreactivity (PSR sort gate)” value is recorded as “low polyreactivity”.
For the sequence “QVQLVDSGGGVVQAGGSLRLSCPASGRTFRGYAMGWYRQAPGKERELVAAISSGGSTYYADSVKGRFTISRDNAKNTVYLQMNSLKPEDTAVYYCAAGGPSTLDDYWGQGTQVTVSS”, the “polyreactivity (PSR sort gate)” value is on record as “low polyreactivity”.
The result for “QVQLVDSGGGVVQAGLSLRLSCAASGRTFPGYAIGWYRQAPGKEMELVASITSRGGITYYADSVKGRFTISRDNAKITVYLQLNSLKPEDSAVYYCATDFAVTKMEYWGQGSQVTVSS” reads “low polyreactivity”; that for “QVQLVDSGRGLVQAGGSLRLSCAASGHIFLYYTMAWYRQAPGKERELVAGITIGGSTIYADSVKGRFTISRDNAKNSVYLQMNSMKPEDTAVYYCNVVNYVFIYSYWEYYYWGQGTEVTVSS”, “low polyreactivity”.
